Reference: EP4624486A1 (Guangdong Raynovent Biotech Co., Ltd., dated 2025)
Bridge positions count the residues as written; N and C are the ends. Square brackets hold non-standard residues; d marks the D form. Ends that are not written are not given here. stapled body chem0195 = not defined here; stapled body chem0208 = not defined here; stapled body chem0209 = not defined here; stapled body chem0212 = not defined here; stapled body chem0214 = not defined here; stapled body chem0215 = not defined here; αMeL = CC(C)C[C@](C)(N)C(=O)O; Orn = NCCC[C@H](N)C(=O)O; Aib = CC(C)(N)C(=O)O

T1: GIP receptor (GIPR) (UniProt P48546 22-466, limits assumed)
T1 sequence (looked up): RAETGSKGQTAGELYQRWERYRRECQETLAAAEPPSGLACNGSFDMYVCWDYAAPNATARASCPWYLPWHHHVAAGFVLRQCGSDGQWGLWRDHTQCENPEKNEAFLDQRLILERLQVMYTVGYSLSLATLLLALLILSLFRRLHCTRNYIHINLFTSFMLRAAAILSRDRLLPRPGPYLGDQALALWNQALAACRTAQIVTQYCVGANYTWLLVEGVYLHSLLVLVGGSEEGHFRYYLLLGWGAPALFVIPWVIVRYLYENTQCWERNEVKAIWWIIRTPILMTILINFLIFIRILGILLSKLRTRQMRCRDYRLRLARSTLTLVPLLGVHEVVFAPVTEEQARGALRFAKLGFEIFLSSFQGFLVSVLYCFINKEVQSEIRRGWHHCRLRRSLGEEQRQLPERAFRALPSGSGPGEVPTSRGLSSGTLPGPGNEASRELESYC

B1: Example 14 (peptide)
peptide: Y[Aib]QGTFTSDYSI[αMeL]LDKKAQ[Aib]KFIEYLLKGGPSSGAPPPS-NH2
modifications: linker 21-28 via stapled body chem0212; reading uncertain; also: further groups not given here
B2: Example 4 (peptide)
peptide: H[Aib]HGTFTSDYSIYLEKKYA[Aib]EFVKWLLKGGPSSGAPPPS-NH2
modifications: bridge 24-28; not fully specified (bridges); also: stapled body (lipidated) structure only in drawing chem0197
B3: Example 16 (peptide)
peptide: Y[Aib]QGTFTSDYSI[αMeL]LDKKAQ[Aib][dK]FIEYLLEGGPSSGAPPPS-NH2
modifications: linker 17-21 via stapled body chem0214; reading uncertain; also: further groups not given here
B4: Example 5 (peptide)
peptide: H[Aib]HGTFTSDYSIYLEKKYA[Aib]KFVQWLLEGGPSSGAPPPS-NH2
modifications: bridge 17-21; not fully specified (bridges); also: stapled body (lipidated) structure only in drawing chem0198
B5: Example 43 (peptide)
peptide: Y[Aib]QGTFTSDYSI[αMeL]KDKKAQ[Aib]AFIEYLLEGGPSSGAPPPS-NH2
modifications: linker 14-17 via (2-2-oxoethyl)‑glycine, AEEA, γGlu, 19‑phosphonononadecanoic acid
B6: Example 2 (peptide)
peptide: Y[Aib]QGTFTSDYSI[αMeL]LDKKAQ[Aib]AFIKWLLKGGPSSGAPPPS-NH2
modifications: linker 24-28 via stapled body chem0195; reading uncertain; also: further groups not given here
B7: Example 6 (peptide)
peptide: Y[Aib]QGTFTSDYSI[αMeL]LDKKAQ[Aib]KFIEYLLEGGPSSGAPPPS-NH2
modifications: bridge 17-21; also: stapled body between K17 and K21 is given only as a drawing, not in text
B8: Example 11 (peptide)
peptide: Y[Aib]QGTFTSDYSI[αMeL]LDKKAQ[Aib]AFIKYLLEGGPSSGAPPPS-NH2
modifications: linker 17-24 via stapled body chem0209; reading uncertain; also: further groups not given here
B9: Example 17 (peptide)
peptide: Y[Aib]QGTFTSDYSI[αMeL]LDKKAQ[Aib][Orn]FIEYLLEGGPSSGAPPPS-NH2
modifications: linker 17-21 via stapled body chem0215; reading uncertain; also: further groups not given here
B10: Example 9 (peptide)
peptide: Y[Aib]QGTFTSDYSI[αMeL]LDKKAQ[Aib]KFIEFLLEGGPSSGAPPPS-NH2
modifications: bridge 17-21; also: stapled body between K17 and K21 is given only as a drawing, not in text
B11: Example 10 (peptide)
peptide: Y[Aib]QGTFTSDYSI[αMeL]LDKKAQ[Aib]EFIEYLLEGGPSSGAPPPS-NH2
modifications: linker 17-21 via stapled body chem0208; reading uncertain; also: further groups not given here

Assays:
Experiment in all cases: cell-based or functional assay
[1] = target: GLP-1 receptor (GLP-1R) (UniProt P43220 24-463, limits assumed)
[2] = target: T1, GIP receptor (GIPR)
[3] = target: GCG receptor (GCGR) (UniProt P47871 26-477, limits assumed)
Chain of GCG receptor (GCGR) (P47871 26-477 limits assumed): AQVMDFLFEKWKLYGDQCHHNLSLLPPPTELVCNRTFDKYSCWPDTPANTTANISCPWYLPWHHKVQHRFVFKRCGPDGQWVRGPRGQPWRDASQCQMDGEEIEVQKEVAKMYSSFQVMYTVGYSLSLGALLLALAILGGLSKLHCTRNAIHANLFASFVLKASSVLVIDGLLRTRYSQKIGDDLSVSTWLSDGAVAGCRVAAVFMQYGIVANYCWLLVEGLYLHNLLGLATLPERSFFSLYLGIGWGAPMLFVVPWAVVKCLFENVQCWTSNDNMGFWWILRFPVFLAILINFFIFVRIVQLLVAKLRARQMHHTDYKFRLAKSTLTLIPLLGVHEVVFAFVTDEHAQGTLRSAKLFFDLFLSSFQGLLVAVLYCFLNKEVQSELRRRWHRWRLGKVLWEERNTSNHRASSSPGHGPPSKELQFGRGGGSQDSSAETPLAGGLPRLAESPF

Binder | GLP-1 EC50 (nM); cAMP, agonistic activity [1] [nM] | GIP-1 EC50 (nM); cAMP, agonistic activity [2] [nM] | GCG EC50 (nM); cAMP, agonistic activity [3] [nM]
B1 | 0.001 | 0.0001 | 0.028
B2 | 0.023 | 0.016 | 0.143
B3 | 0.002 | 0.0001 | 0.042
Y[Aib]QGTFTSDYSI[αMeL]LDKKAQ[Aib]KFIEYLLEGGPSSGAPPPS-NH2 (bridge 17-21; also: further groups not given here) [Example 7] | 0.005 | 0.0003 | 0.061
B4 | 0.029 | 0.007 | 0.012
B5 |  |  | 0.042
B6 | 0.009 | 0.001 | 0.279
Y[Aib]QGTFTSDYSI[αMeL]LDKKAQ[Aib]AFIEKLLEGGPSSGAPPPS-NH2 (linker 25-28 via Lys, AEEA, γGlu, C20 diacid) [Example 3] | 0.025 | 0.003 | 1.68
B7 | 0.005 | 0.0005 | 0.017
B8 | 0.006 | 0.0003 | 0.129
Y[Aib]QGTFTSDYSI[αMeL]LDKKAQ[Aib]AFIKYLLEGGPSSGAPPPS-NH2 (linker 17-24 via Ida, Lys, Lys, γGlu, C20 diacid) [Example 18] | 0.008 | 0.0004 | 0.052
Y[Aib]QGTFTSDYSI[αMeL]LDKKAQ[Aib]KFIEYLLEGGPSSGAPPPS-NH2 (bridge 17-21) [Example 8] | 0.004 | 0.0004 | 0.012
Y[Aib]QGTFTSDYSI[αMeL]LDKKAQ[Aib]KFIEYLLEGGPSSGAPPPS-NH2 (linker 17-21 via Glu, AEEA, AEEA, γGlu, C20 diacid) [Example 12] | 0.002 | 0.0001 | 0.007
B9 | 0.001 | 0.0001 | 0.016
B10 | 0.005 | 0.0004 | 0.022
B11 | 0.009 | 0.0003 | 0.057
